Here are results for one protein from patent US20250257368A1 (FLAGSHIP PIONEERING INNOVATIONS V, published 2025).

This series deals with the molecule itself. The series can be described thus: self-assembly into virus-like particles, negative staining electron microscopy.

B1: Ring2 ORF1 protein expressed as a full-length protein in insect cells (other)
chain: MPYYYRRRRYNYRRPRWYGRGWIRRPFRRRFRRKRRVRPTYTTIPLKQWQPPYKRTCYIKGQDCLIYYSNLRLGMNSTMYEKSIVPVHWPGGGSFSVSMLTLDALYDIHKLCRNWWTSTNQDLPLVRYKGCKITFYQSTFTDYIVRIHTELPANSNKLTYPNTHPLMMMMSKYKHIIPSRQTRRKKKPYTKIFVKPPPQFENKWYFATDLYKIPLLQIHCTACNLQNPFVKPDKLSNNVTLWSLNTISIQNRNMSVDQGQSWPFKILGTQSFYFYFYTGANLPGDTTQIPVADLLPLTNPRINRPGQSLNEAKITDHITFTEYKNKFTNYWGNPFNKHIQEHLDMILYSLKSPEAIKNEWTTENMKWNQLNNAGTMALTPFNEPIFTQIQYNPDRDTGEDTQLYLLSNATGTGWDPPGIPELILEGFPLWLIYWGFADFQKNLKKVTNIDTNYMLVAKTKFTQKPGTFYLVILNDTFVEGNSPYEKQPLPEDNIKWYPQVQYQLEAQNKLLQTGPFTPNIQGQLSDNISMFYKFYFKWGGSPPKAINVENPAHQIQYPIPRNEHETTSLQSPGEAPESILYSFDYRHGNYTTTALSRISQDWALKDTVSKITEPDRQQLLKQALECLQISEETQEKKEKEVQQLISNLRQQQQLYRERIISLLKDQ
notes: also called Anellovirus ORF1 protein
Regarding B1, the binding result is listed as “binds”.
